Measured values as given in US20240336907A1, “NOVEL ENDO-ß-N-ACETYLGLUCOSAMINIDASE” (priority 2020, published 2024).

System: (Fucα1,6)GlcNAc-mAb2
Test: Transglycosylation activity with SGP as donor, in combination with Endo-M N175Q
Format: biochemical
Settings: donor SGP (50 eq.), Endo-M N175Q 2.5 mU, Endo-Si enzyme 10 μg, 23° C., pH 7.5
Experimental: Transglycosylation activity was evaluated as follows. A 50 mM (sodium) phosphate buffer (pH 7.5) solution (17 μL) containing (Fucα1,6)GlcNAc-mAb2 (0.5 mg), SGP (0.485 mg (50 eq.)), Endo-M N175Q (manufactured by Tokyo Kasei Kogyo Co., Ltd.) (2.5 mU) and each of various Endo-Si mutant enzymes (10 μg), was prepared and incubated at 23° C. A sample was taken from each of the reaction solutions at 2, 4, 6, 24, and 48 hours after initiation of the reaction and analyzed for protein by a fully automated electrophoresis system as mentioned above. In the chromatogram obtained, an unreacted product and a transglycosylated molecule, mAb2-(SG)2 are confirmed as discrete peaks. The transglycosylation rates were obtained based on the peak area ratio between the unreacted product and the transglycosylated molecule in accordance with the following expression.
Similarly, transglycosylation rates of individual Endo-Si mutant enzymes at each time period of a reaction were calculated (Table 6).

B1: Endo-Si WT: endo-β-N-acetylglucosaminidase derived from Streptococcus iniae, amino acid positions 34 to 928 in SEQ ID NO: 2 (protein, listed as Streptococcus iniae)
chain: REELKMPNGLEQSIADVEAKIDALTYLSKNSKDEFKHSMYEIPSNREHKPVSPKQALQNAKKADAQAERLAKMTIPKKEELKALEGPLYGGYFRTWQDKTSDPTETNKVNSFGELPKEVDLAFVFHDYTKDYSLFWEELATKQVPKLNKQGTRVIRTIPWRFLSGADHSDISADKEKFPNTEAGNKALAKAIVDEYVYKYNLDGLDIDIERDSVPKVNDKEDPEALARTVEVFKEIGKLIGANGADKSRLLIMDTTYTAEENPLIKETAQYLNLLLVQVYGFSGENGNYLHHKNILDETSSMEGRWQGYSKYIRPEQYMVGFSFYEEKDFNNRWKDINEEDPSDPHIGEKIQGTRAERYAKWQPKTGGLKGGLFSYAIDRDGVAQPKQKTEHPELDKIVKSEYKVSKALKKLMMTDDQYQPIDQSDFPDKALRESIIKQVGTRRGDLERFKGTLRLDNPEIKDLTGLNKLKRVAKLELINLPKITKIDKDDLPQNLKPLTDNQKSNLEIKGTYDDSKLYKDIPAFDLVISGLSGLESLDISGHQRDTLSGIDASTLPSLKAINISDNHFDLAQGTENRHILDTILATLAKNGASTASFDKQKPKGLYPESYSTAPLHLQVGQGKINVIDDLIFGTRTNQNTLINTENDFEAYKEQTIQGKPFIAPDYLYDNFKVSYKEYSASIVDSTLAETTDKTIDTAKAETYQVTVSNKDGKTVHSVKVIVGDEKPMMVNLAQDAKIIGTDNMTQSAKVFDGQKDQFLLSWNKDSSVIFELKTPGTAKHWRFFDDGKNDSVTLSVFKGDASNFETEKDKAENWVEITKDSRKNDDKVFSSPLEVDNAKYLKVTIKKEAKYIYFNELQILGYPGVVAKKTADDLRPTEADKSDDKSDKNDTEAK
Transglycosylation rate (2 h): 1.2%
Transglycosylation rate (4 h): 1.1%
Transglycosylation rate (6 h): 0.0%
Transglycosylation rate (24 h): 0.0%
Transglycosylation rate (48 h): 0.0%
